From article PMC6053543

Target: β1 wild-type cytoplasmic tail peptide
Assay: pull-down

- fold more talin pulled down with equal molar FL-Kank2 than with GST only: 5 fold
- fold more talin pulled down with equal molar GST-KN than with GST only: 5 fold
Substance: recombinant full length talin-1, P26039 1-2541
